Reference: PMC2880590
Where two headings read alike, the source gives them in different places.

What was measured:
[1] = molecular target: activated platelet integrin αIIbβ3 (human (endogenous in platelets)) (UniProt P08514)
[2] = molecular target: contortrostatin (CN), native (Agkistrodon contortrix contortrix); assay: fluorescence polarisation; differing concentrations of purified soluble integrin with a constant amount of FITC-labelled CN or VCN, in solution, steady state; Scatchard analysis and non-linear curve fit
[3] = molecular target: vicrostatin (VCN) (Agkistrodon contortrix contortrix (southern copperhead venom gland cDNA library) | not stated); assay: as above
[4] = molecular target: contortrostatin (CN), native (Agkistrodon contortrix contortrix); assay: fluorescence polarisation
[5] = molecular target: vicrostatin (VCN) (Agkistrodon contortrix contortrix (southern copperhead venom gland cDNA library) | not stated); assay: fluorescence polarisation
[6] = molecular target: activated platelet integrin αIIbβ3 (human (endogenous in platelets)) (UniProt P08514); remark: listed apart in the source

UniProt P08514, sequence (P08514 32-1039, chain 1 of 2): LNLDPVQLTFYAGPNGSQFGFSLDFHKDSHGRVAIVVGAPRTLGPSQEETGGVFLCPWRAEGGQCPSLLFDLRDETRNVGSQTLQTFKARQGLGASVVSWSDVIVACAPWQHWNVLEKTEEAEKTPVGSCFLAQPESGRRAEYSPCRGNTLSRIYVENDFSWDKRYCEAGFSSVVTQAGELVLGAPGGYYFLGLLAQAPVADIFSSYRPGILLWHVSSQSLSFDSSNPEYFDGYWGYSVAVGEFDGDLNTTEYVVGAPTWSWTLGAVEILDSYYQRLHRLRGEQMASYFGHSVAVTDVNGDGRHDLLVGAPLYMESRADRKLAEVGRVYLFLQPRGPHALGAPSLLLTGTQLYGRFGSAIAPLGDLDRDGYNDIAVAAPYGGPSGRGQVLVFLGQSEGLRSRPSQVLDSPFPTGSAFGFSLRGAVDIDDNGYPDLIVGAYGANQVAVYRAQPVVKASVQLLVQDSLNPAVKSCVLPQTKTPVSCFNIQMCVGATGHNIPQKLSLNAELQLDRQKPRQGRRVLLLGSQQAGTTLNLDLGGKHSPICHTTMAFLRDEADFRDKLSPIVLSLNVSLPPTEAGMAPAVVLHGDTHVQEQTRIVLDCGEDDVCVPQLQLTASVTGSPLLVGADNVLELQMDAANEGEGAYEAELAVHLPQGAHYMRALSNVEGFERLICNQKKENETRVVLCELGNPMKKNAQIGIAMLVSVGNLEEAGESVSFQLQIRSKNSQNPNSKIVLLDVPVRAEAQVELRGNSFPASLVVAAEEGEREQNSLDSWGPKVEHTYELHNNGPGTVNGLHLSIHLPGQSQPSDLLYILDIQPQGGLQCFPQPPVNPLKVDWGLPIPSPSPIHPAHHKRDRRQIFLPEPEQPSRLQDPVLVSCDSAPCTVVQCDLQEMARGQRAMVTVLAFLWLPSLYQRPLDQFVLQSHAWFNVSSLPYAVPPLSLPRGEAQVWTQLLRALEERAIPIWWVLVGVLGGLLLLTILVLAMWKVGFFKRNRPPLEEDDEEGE
UniProt P08514, sequence (P05106 27-788, chain 2 of 2, further chain): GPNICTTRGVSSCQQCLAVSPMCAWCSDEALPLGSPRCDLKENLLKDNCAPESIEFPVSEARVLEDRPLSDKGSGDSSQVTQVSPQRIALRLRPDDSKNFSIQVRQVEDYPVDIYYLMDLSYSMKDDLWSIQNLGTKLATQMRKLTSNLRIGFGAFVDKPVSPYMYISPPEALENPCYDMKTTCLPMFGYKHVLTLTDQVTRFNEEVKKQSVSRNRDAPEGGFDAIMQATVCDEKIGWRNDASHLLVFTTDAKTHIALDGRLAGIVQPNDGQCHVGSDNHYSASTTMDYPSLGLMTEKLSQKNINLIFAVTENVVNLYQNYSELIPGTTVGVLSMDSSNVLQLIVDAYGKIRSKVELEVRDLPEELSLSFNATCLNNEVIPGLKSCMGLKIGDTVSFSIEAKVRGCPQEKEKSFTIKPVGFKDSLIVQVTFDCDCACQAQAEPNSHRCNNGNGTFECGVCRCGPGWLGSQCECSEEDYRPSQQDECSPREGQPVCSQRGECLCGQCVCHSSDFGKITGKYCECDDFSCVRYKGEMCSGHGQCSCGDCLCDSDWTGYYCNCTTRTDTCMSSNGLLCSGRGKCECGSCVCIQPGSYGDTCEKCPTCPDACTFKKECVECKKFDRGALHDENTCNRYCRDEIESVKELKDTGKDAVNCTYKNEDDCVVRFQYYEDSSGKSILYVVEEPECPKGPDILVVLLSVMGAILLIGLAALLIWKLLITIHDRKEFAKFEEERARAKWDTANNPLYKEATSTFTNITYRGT

For “contortrostatin (CN), native (natural protein)”, the IC50 of inhibition of ADP-induced platelet aggregation in human platelet-rich plasma (blocks fibrinogen binding to αIIbβ3) [1] was 60 nM.

Substance “purified soluble integrin αvβ3 (from UniProt P06756 31-1048; P05106 27-718) (receptor)” has a Kd [2] of 6.6 nM and a Kd [3] of 7.4 nM.

“purified soluble integrin αvβ5 (from UniProt P06756 31-1048; P18084 24-719) (receptor)” gave a Kd [4] of 19.5 nM and a Kd [5] of 41.2 nM.

Substance “soluble recombinant integrin α5β1 (from UniProt P08648 42-1049; P05556 21-728) (receptor)” has a Kd [4] of 191 nM and a Kd [5] of 15.2 nM.

With vicrostatin (VCN) (ligand) the IC50 of inhibition of ADP-induced platelet aggregation in human platelet-rich plasma (blocks fibrinogen binding to αIIbβ3) [6] was 60 nM.
